Values of other authors, collected in patent US20180318303A1, “METHODS FOR TREATING MYELOPROLIFERATIVE DISORDERS” (Promedior, Inc., priority 2015, published 2018).

Conditions: in vivo

In the case of “SAP: naturally occurring serum protein in mammals composed of five identical subunits, non-covalently associated in a disk-like complex”, the physiological half-life is listed as “twenty-four”.
